Results: the DeepSol protein solubility set

Experiment: soluble on expression in E. coli; label from the status in PepcDB or PDB records

| Sequence | soluble on expression in E. coli |
| --- | --- |
| MNLLETVEQDTMPTHYKQMTQVEMIARVTEIKAQLGENLFIPCHHYQKDEVVPFADAIGDSLQLAQIAAQNKKAKHIVFCGVHFMAETADMLTTSEQIVTLPDMRAGCSMADMADIHQLTNAWPKLQTLFGDTILPVTYINSTAAIKSFVGEHGGTTVTSSNATKIVSWALEQKERIFFLPDQHLGRNTAFELGIPLEHMAIWNPIKNELEYEGNLDDCKVILWKGYCSVHQHFTVKNIENIRKNHPNMRIIVHPECTHEVVSLADDSGSTKKIVTEINNAAPGTEWAVGTEANLVGRIIQENPDKKIVSLNPFMCPCMTMNRIDLPHLLWTLEAIQNGEKRNQIKVDEQTTKFALKALERMLQLS | not soluble |
| MEWGVRFYVLSKQEWKQQTIDRCGQFYCLVPSNAGFHVYLFVTMDTGENAVFVFPPHFFIRYRERYWGKHSTLSGKILRKTYLKDNLVMRYGLQPGSEERVTGARIYSASSHGVALGIVLNDEAYLFKTFITYAMTKGEQIPLYMQEKLSMERAQVEYYNTGRLADLVELEERDRKRREMLMAEERRREEKEKRRAAEPGEAYFYVEGPLTLIMPDEEIQEENTGFWQRGTTMFCDSKLIEESQREMRELASVEARIQELKNIPQKAEEKKGVFKRLFGRYF | not soluble |
| MKFDVIIVGAGPGGMFAAYKLAGKLNTAIFEMGRDISKRKCPSDLSESYCTKCNPCNITSGVGGAGGLSDGKLNYVHPEYPSSFSVGGDFDFLDPNYLIEKMNEVDEIFLKHGAPDELYGDDLEKIEDFLKRANAAGIEFVPLRQRHVGSDELPKVVKSIEDKLKKEGVKIYTRKTVVDIDPERKVVRTEKGEEFGYDYLIIAVGRSGASWLEKWARDYNLEVAENSKAIDVGVRVEVPASIMDDITSAIYDPKLRVITKRHDDYMRTFCTCPRGWVIREDYGDFCLVNGHSKAKEKSSNTNFALLGHYEFTEPFDEPNEWGRDLARITTKLGGGNPIVQRLKDLRLGRRSTESRIKNNRLVQPTLKTAIPGDISLAYPGRAIDDILDALERLDKVIPGVADDSTLLYAPEVKFYSLKLKVDEWMKTNIPYIYAIGDGAGVSRGIVGAAVTGLIAAEGILRERGMELEHHHHHH | soluble |
| ADQVDPQLKFAMQRDLGIFPTQLPQYLQTEKLARTQAAAIEREFGAQFAGSWIERNEDGSFKLVAATSGARKSSTLGGVEVRNVRYSLKQLQSAMEQLDAGANARVKGVSKPLDGVQSWYVDPRSNAVVVKVDDGATDAGVDFVALSGADSAQVRIESSPGKLQTT | soluble |
| MVLLVNIDDNEKWDNTVKGFENFDVYYLSGYVKAFHAHGDGEPKLFFYEDSNIKAINVFMKRDIEKDQNFSGKIPPNTFYDAATPYGYGGFLIEGNVTDESLRTLEKEYSELCLNEGIISEFVRFHPVINNSGTVSSIYDILELGRTVTIELDSREKVWEGFAGNNRNKVRKAKKSGVEIFWGRSPKLFDTFIPMYNETMDNDGASGYYYFKKDFYNSILEDLKYNSLIFYAVFEDRIISMSIILFANKQMHYHLSATDREYRNLAPTNLLLYEAACWGIENGYKTFHLGGGLGSREDSLYQFKKGFNKNSSTYFCIGKKIFDKEKYDELIKIRKQDPYFDENKLFFPLYRG | not soluble |
| MRETHLRSILHTIPDAMIVIDGHGIIQLFSTAAERLFGWSELEAIGQNVNILMPEPDRSRHDSYISRYRTTSDPHIIGIGRIVTGKRRDGTTFPMHLSIGEMQSGGEPYFTGFVRDLTEHQQTQARLQELQ | soluble |
| MSTDNLLQPKLIEATLGDYPVIQNMARFYVYDMSRYCGFISEEWTCPPDGLYESYDFKIYFTDPERKAFLIQIDNELAGFALLNKFGIQAVDWSMGEFFILAKFQGKGIGQSVAHQLWRTHPGEWEISVIPENIPALSFWRQAVMTYTL | not soluble |
| MDKSKINFNYQSRAVYSANPQTSRGRLFHETMNTLRSPFQRDRDRIIHSNAFRRLKHKTQVFIADESDHYRTRLTHSIEVSQIARTLARALYLDEDLAESIALVHDFGHTPFGHAGEDALNEAMAPYGGFDHNAQALRIVTKLEQRYANFDGLNLTWETLEGLVKHNGPLLGPYAKNKDIPIDILQYNAKQDLQLNCFAGLEAQCAAIADDIAYNAHDVDDGLRSQFLTLDQFEQVSLTAALLNDIKKEHPQLDQTRRGYTLVRRQIKTMVEDVIKQSQENLARVKPKSISDVHQAEQTIVTFSPTMAVYERELKDFLFKNLYYHDQVLNRRNAAKRIVQKLFECYYENPDVMPENWHNKTAHLTNQELARLIADFLSGMTDHYALREYQHLFDCTDNFI | not soluble |
| MGSDKIHHHHHHMKFFNREKEINKILSIIEGEPNNIYFIYGSLNSGKSTLMREIVVNRLDISKYIPFFIDFRTRNILNVDNFIECLFEVDEKSEIDDFREYAKSLADLLVKGSEEISKYYLGMPIKIPKPFFDKIFNKKDKSADVYQYIEYLFAKLNEKGKKPILIFDELQMIKEITLNGNRKLLWSLFQFLVALTKVQHLCHVFCLSSDSLFIEYVYKTGELEGRADYILVDDFDKQTALKFIDFLAKEILNKKLPKDEKELIYSYVGGKPVLIIKVIDKLRYENLNDILDFMLKDATQKLKYFLNDLDYIKPKVEVGDEVIELKKEDIVKALKLFKDSYEISDSEVAKPIYVYLVKKNILFLNPIEGILKPQSFLIWNAIKRLL | not soluble |
| FYRNHYKITYKRRLSDLFREFYLTSSRTKWQLCITLGVALVMLVSRELGLPRPMWAGFAAMSVMQPFAEDLKQRVKHRLPGTIAGGLLFLLLCRVLPE | not soluble |
| MMKQSFLANERIYLRAVEPEDLDLMYEMENDPSMWDISSFTVPYSRFVLKQYIEGSQSDMFADKQLRLMIMRRKDNCTLGTVDITDFVPLHSRGAVGIAVHSNYRQEGYASDALKLLCEYAFNFLFIKQLYAHIAVDNEPSLRLFNSCGFTQCGVLKEWLLTHEGYKDAVLVQCMNPKR | not soluble |
| MIHCDPFSINCFWENVIKFLQYDHSMFKIAITSVPARVDVSDLDRSLAYFLSDIGYIPKINPSTDMNSIKNSVYFRLFKECFLMNGERFWTPEELMSYLGTSRSTLYRHLNKLKYMDLLEEVKDGKIKKYRIRSGDILKAWSWVEINVKMAMDNYRSNVEHIVDLIRSNSNSNLRPLEHHHHHH | not soluble |
| PVTETVDGQGQAWRHHNGFDFAVIKELKTAASQYGATAPYTLAIVESVADNWLTPTDWNTLVRAVLSGGDHLLWKSEFFENCRDTAKRNQQAGNGWDFDMLTGSGNYSSTDAQMQYDPGLFAQIQAAATKAWRKLPVKGD | soluble |
| MTSASAPSFNPGKGPGSAVGIALLGFGTVGTEVMRLMTEYGDELAHRIGGPLEVRGIAVSDISKPREGVAPELLTEDAFALIEREDVDIVVEVIGGIEYPREVVLAALKAGKSVVTANKALVAAHSAELADAAEAANVDLYFEAAVAGAIPVVGPLRRSLAGDQIQSVMGIVNGTTNFILDAMDSTGADYADSLAEATRLGYAEADPTADVEGHDAASKAAILASIAFHTRVTADDVYCEGISNISAADIEAAQQAGHTIKLLAICEKFTNKEGKSAISARVHPTLLPVSHPLASVNKSFNAIFVEAEAAGRLMFYGNGAGGAPTASAVLGDVVGAARNKVHGGRAPGESTYANLPIADFGETTTRYHLDMDVEDRVGVLAELASLFSEQGISLRTIRQEERDDDARLIVVTHSALESDLSRTVELLKAKPVVKAINSVIRLERD | not soluble |
| MGSDKIHHHHHHMRKLLVIGLDSVPPLLIEKFRDLIPNLQSLLNVKGKLLSGHPPITVPMWGVMLAGRSAGELGVYGFRHRRPGDVGTSYVVTSRSIAEGWVWDDLGLRLGLRSLVIGVPPGYPARRVRGWFVSCFLTPGVDGAFAWPPGLKREILKASGGDYVFDVKYRVEDKESVRKSLWRLAKTQFKVVKYLLSSKPWDFAMYMHIGTDRVHHAFWKYWDPEHPRYPGEGNPYENVLPEYYSLVDKHIGQLLESLPGDTDVIVVSDHGAKAMKGAFAINQWLEEEGYLSLKEEPKRPGADLEASMIDWDRTMAWAWGGYYSRVYINLKGREPRGIVGREEYWSVVEQLKRDIEKIRGPNGERWENKAYHPSELYPEVRGDAPDLMVYLDNLSWRPAGTIGWPSTYLEENDRGPDDAVHDWHGIIGGNADVLKEAVKDSTVPIQRVKEIILAHYGLESHMKDRGRGAV | not soluble |
| YCEFLNNELRAHASDLLPTAPVPTMMLDRAWDEATLHNITQLIYDVRKDDALFRREISKPGAFDLMRKNYWDRREYSAVTLVGNETCNLAPLAELGFQIEVSQ | not soluble |
| MTANRQQYQVESVKESNLEEIVQFLIDNFAQTEAILASLKIDDDKICLKELTVMLRDLVQDSLQCSSTCVIRDVTTRQIDGIALACKTSIFDKQIDRLCAYEFREQRVRDAVEFLKYVFNKLDVMYYLNEHRLYKPVFVALVCVRKELWGRGIGTTLMNHVKSAARTDSSDGLISLCSNERGHKLMKTYCPTDFAAVRYDAFKGEHLRPPIVMRPPETFHSVYAMLSKFN | soluble |
| GREQMASFESAYVALSRMKQHVQVYTDNREGWIKAIKNSPEKATAHDILEPRNDRAVKTADLLFGRARPLDETAAGRAALQQSGLAQGSSPGKFISPGKKYPQPHVALPAFDKNGKAAGIWLSPLTDRDGRLEAIGGEGRIMGNEDARFVALQNSRNGESLLAGNMGEGVRMARDNPDTGVVVRLAGDDRPWNPGAMTGGRVWAEPAPVAPVPQAGADIILPPEVLAQRAAEEQQRREMEKKAEQTAREMAGEARKAG | not soluble |
| MKYLAAYLLLVQGGNAAPSAADIKAVVESVGAEVDEARINELLSSLEGKGSLEEIIAEGQKKFATVPTGGASSAAAGAAGAAAGGDAAEEEKEEEAKEESDDDMGFGLFD | soluble |
| MGSVVPHYSWFSGITQFQKGKEFQFAEGQGVPIANGIPASEQKGYWYRHNRRSFKTPDGQQKQLLPRWYFYYLGTGPHAGASYGDSIEGVFWVANSQADTNTRSDIVERDPSSHEAIPTRFAPGTVLPQGFYVEGSGRS | soluble |
| MDATMVFKRLLGSLGVGAPTVDTVLDPAPVLPGGTLTGQVHLEGGQTDFDIEHITLELVARVEAEHEDGEDEGVVVFDRFTVGGGFRLGAEEPRSVPFRVTLPWETPITELYGQPLGIVLGVRTELAVADAKDKGDLDQLTVTALPVQEAVLEAFGQLGFGFGSADLEYGHIGGTGQQLPFYQEIELVPAPQYADRLNEIELTFLAGPGGLEVVLEADKRGGLLSSGHDAVTRFSVGHHDARDWAAEVEGWVRQLVEHHTTYGAPGTHGHSTPYAGHGHHDPHGNGGRHHDDHRSGPGVGTAVAAGAAGLAVGVVGGMVAAEVVDEVGDFFEGDDEEEDEG | not soluble |
| MSSDKNGDILRPLSDSEVDELLDLYKVKFGIRNFHYLLLYNQRKWDRQLSEAQIPRNDLNHISLRKQFYTHRRGNFRTWGTYVSLHRDIVQSVSFFSWQPDGAAELWECLEQTQLIEWTQGALLTNVDLGFCNRVKELAVSRGVTAIQPRQCFGMVLSHEDAFCAKVPDLPSEFEIRRLRAEDAAMVHDSWPNKGEGSLTYLQALVRFNKSLGICRSDTGELIAWIFQNDFSGLGMLQVLPKAERRGLGGLLAAAMSREIARGEEITLTAWIVATNWRSEALLKRIGYQKDLVNEWIKLVPNSSLEHHHHHH | soluble |
| AIAASSDVLRQPDKNARPLALSGHVGFDSLPDQLVNKSTSQGFCFNILCIGETGIGKSTLMDTLFNTNFENFESSHFEPKVKLRAQTYDLQESNVRLKLTVVNTVGFGDQMNKQESYQHIVDYIDTQFESYLQEELKIKRSLHNYHDSRIHACLYFIAPSGHSLKSLDLVTMKKLDSKVNIIPVIAKADTISKSELHKFKIKIMSELVSNGVQIYQFPIDDETVAKINTAMNGHLPFAVVGSTEEVNIGNKMVKARQYPWGVVQVENENHCDFVKLREMLICVNMEDLREQTHTRHYELYRRCKLEEMGFKDTDPECKPVSLQQTYEAKRQEFLGELQRREEEMRQTFVQRVKEKEAELKDAERELQGKFEQLKRLHADEKSKLEEKRRSLEEEMSVFSKRKAATELLQAQSFNTSTNNKKDKDRKNSGFM | soluble |
